Source: patent US20110171749A1

Target: streptavidin (UniProt P22629)
Assay: polyaniline polymeric wire biosensor, streptavidin on NC membrane, pulse mode voltammetry

biotin conjugate goat anti-mouse IgG (whole molecule), conjugated with magnetic composite Fe2O3/polyaniline particles (antibody)
resistance: 4.3 kΩ
